This note sets out measurements from the DeepSol protein solubility set.

The data set can be described thus: soluble on expression in E. coli; label from the status in PepcDB or PDB records.
On to “MTEIQTIRKKVEQQITSLQNETDEIAEFNQAKVLDAFQENKVSDFHFNPSTGYGYDDEGRDTLERVYASVFKTEAALVRPQIISGTHAISTVLFGILRPGDELLYITGEPYDTLEEIVGIRSEGQGSLKDFQIGYDAVPLLPNGEIDYPAVSKKISANTKMIGIQRSRGYADRPSFTIEKIKEMVTFVKNINPNIIVFVDNCYGEFVERIEPTEVGADIIAGSLIKNPGGGLAKTGGYIAGRNTLVDLCGYRLTTPGIGREAGASLYSLLEMYQGFFLAPHVTAQAIKGARFTAAMLAEFGVEADPLWDAKRTDLIQSVSFHSKDKMIAFAQAIQAASPVNAHVLPIGAYMPGYEDDVIMAAGTFIQGASLELTADGPIREPYQLYVQGGLTYEHVKIAVTRAIENSLLEHHHHHH”, for which the “soluble on expression in E. coli” value was “soluble”.
With “MGSDKIHHHHHHDSFLDEKMYSSYGPEVSDVNAKLVGLHRQYAAIWGMSSQQGFVGCWQVGTDVGAPGDTQGVEVPFYRYQELNAENAGVSFLWEKLYELINSANQIIASQAEGGDAAATAEAMFFRAYAYNMLVTLWGDVPLVTESTSIPRTDYTRNAVAEVDGVIDSDLVYAMSNLPVVGAAKNESRINQDMARQLAGEAYLRMGMRDASYFKKAEDAVTPIITGGKYELISARYGKYAAEPGDYYHDMFRWGNQRRSQGNMEAIWTFEMEYNRDVNGGTIDNPQQRRNWVPAFHKLDGMVNADSIGGRGNGRLRISNFVKYGLYEKGDIRNSNYNIRRVMWYNKPGFSKEVGIDAKGFLVDKDKGIRNVTLKTGDQVIPHEGDSLNVFYPHPTKWGAYDETDDFGYAVVKDWPVMRLGETYLLRAEARFRQGNTQGAADDINVLRDRAFKDYRAVAPGAGKVTADQIDIDFILDERARELISEENRRMTLVRTNTLAERIKLNGDMEPAAPSNKVITGFDANIHTLLPIPLTEIQLNKDGDLKQNPGY”, the “soluble on expression in E. coli” value is recorded as “not soluble”.
Turning to “MQRRLERFDAKLVQSGLDALLVTGQNNIYYLTDFWGTNATVFITKNRRLFLTDSRYTLIAKQSVHGFDIIESKDPLKDIVKFVEVDKLETIGFDNQVSFAYYQALQAIFEGYTLSPQTNFMEELRMIK”, the “soluble on expression in E. coli” value is “soluble”.
Regarding “MADVIEIRGPVYNGSDINDIIDTYGENNALTIDATKFAAFYYDIDDNVTTETLSILAVPGTEGNVIGEGGIVYETTIQQVDYEFYRPAAGWSNYSLIGFFAEKYIPINPDKADKLAKLVLDSDDKYTIRTGEQLDLGEGYSIEAKQVDVDGEKVWLEFTKDGEFVDDEIISVVSGSDNTWEVELDDIQDEDDVVVLRVHVNQVFQGAVDSIAQIEGLWLIDYTNAMKIESDDEFGNLDNVKINGDTLTITNEDTFTLTRDDEEEIAEGLFFKTADDTRALEHHHHHH”, the “soluble on expression in E. coli” value was “soluble”.
The result for “MVEVVGVRFREAGHIYYFAPGKSEYIYNEKVLVESQQSKQLATVAIPKKTVDSDDLPEDLKPILNKATANDLEKEQKNLADAEAAKSIANEKIRAHDLKMKLVRVEYTFDRSKMIFYFTADGRIDFRELVKDLAAIFRTRIELRQIGVRDEAKILGGIGPCGRQLCCSTFLGDFMPVSIKMAKDQGLSLNPVKISGLCGRLMCCLKYENDEYEAAKKELPDYGKEVITPDGKGKVVGLNLLSRIVKVRLHGREIAADYDYEEIKEATAKVAAEKGDQNGLEHHHHHH” reads “soluble”; that for “MGSDKIHHHHHHMQGTQQSLPLAVVRGQAMTEMPQDLFIPPEALEVFLESFEGPLDLLLYLIRKQKLDVVDLPISQITAQYLEYIAMLTQARIELASDYLVMAATLAEIKSRLLLPRMVAEDEVEEDPRAQLIRQLKAYEVIKEASQKIDDLPRLERDVFQATAAPSPNIKPLVIPPDVSLFEIARAFGDVLKRIDAYEDHHVKREQLSTRERMSQILAMLNSEDFTPFERLFSVEEGRAGVVVTFLALMELVKELLVELYQTEPFSTIYVKAY”, “not soluble”; that for “MAGQIETRQFRTLFISDVHLGSKAAKTDFLLDFLKYHEAETIIMVGDIVDGWRLRRSWYWPQGCNDVVQKLLRKARKGTRIVYIPGNHDEFLREFPGMHFGGIEVAERMIHEAADGKKYLVIHGDEFDVVVRNARLLAYLGDWAYDAAIAINIAIAAVRRRIGLPYWSFSAWAKLQVKHAVNFIGEFQRVVADEARRNNVDGVICGHIHHAIMEDMDGIRYINTGDWVESCTAIAENADGSFELITWMQTSEATAEHASDEMEPVNIPGLIGKHAA”, “not soluble”.
For “MGSDKIHHHHHHLITIENSKFKAGIAERGAELQSLVNKADNYEYVWTGDKTFWNRHAPILFPSIGKSNQDQYRLGAKTYPMSQHGFARDYDFDVSDKSDSAVTFTQHQNAETLKKFPFEYTLAVTYMLTDGGLSVHYTVTNDDSKSMPFALGFHPAFNVGLKADGSFDDYDLTVEPLNSPLQRFGIGPVPFRNGDVEDIPGAEGNRLPLTHDLLDGGLVILANSEIAKATLASPHHDHSITLDISDFPYLTIWSPEHKKAPFIAVEPFDGLPDQAGEPTDWYTKLGNTTLSAGANKQLALKVELH”, the “soluble on expression in E. coli” value was “not soluble”.
“DQRQAEKALLESEQKFRSFIETTSEGFLILTPQLDINFSNTAICQLAGYSLTEMQGKSVLVFVTSESRKQLRQQLIMARSHSHLAAELTLMHKNGHHVFIRYKATVMADGNGFFTYITDIT”: the “soluble on expression in E. coli” value is on record as “not soluble”.
In the case of “MGNINSLFTTNPSEILPVEVYLNDLSCDAVENLGSTRFMKVARGRTHEGVFVYKVFVRQDLASLDPFPQRIIDIRKALMKSPNCCPIKKVLVKQKYAVMVRAFQKHTLFDRLSTRPFVVEAEKMWYIFLLFKALSQCETAGVCHGDLKSQNVLISSTNWLQITDFAPFKPCFLTHDNPSSFTFFFDTSRRQSCYIAPERFISATEYDEKLRDGQDEWLFGSLTPKMDMFSAGCIVFELLCDRPPFTYSSLCEYRSMNDADAGNMLLRLIQDVPAPYRPLLRLLLNRDPSFRISANAVLTGAALKFPHILESFLFKYLDRFRPLYGTSTSSDPSTDDFSQALEFSYLEPDDVITKLKREKQLWWARLSENDESKSFAFLFVSLITANLRALRTIQGKTDAIRMLVELSTISDSSVAIDRILPYFVHLWMDPETQVRATAVTAVAELLAPIQPKTYEESLVFVDYLFPHLNSMSNDSIDSPQHVLFAIATSLGQFADTAYRFYMAGREIRQATMYDDEVSTAGEQQQNDDAGALLHGVSAMFSALCSKEPMVKRCLVESKSLILLYHFFIKIGNDDTLLRFLCTFLNAKTEWRLRAAFFDSLPVCVQKRSEGMVPLLQLGLQDGEEHVVVRALGCIHILIKNENLDKMSVKKLLDDVLPFLVHPNDWIRSTVCDILLAIDCQWHNAEVHVKLIPLVSPFVEESKRGVLTLKSKPVLMSQLVDPIPRTTFNQIIDQSLENTKQITMLLEIHFQTGKPFEAGAGWFNTIFPKIKTETKAGVVEHNDLKAALEARKRLTASVYSFRKLFERMAETRNTAGMEIYLTRQLGTIDLSSIAHSRVRRKEFTYGGDESAMSSNSKHLTAINIPNHSTERRDTLLLAGEVVIEEERTVTNTPAPYSPVKNTTFDNQVNEMLAHLNELHMRNVNCRPKRPLAASASHPVLSASPSAGSLGSSSNNNVKGIIITHLHEHSGKITKLCANRESDLFLSGSTDGTVKVWKTRSVLGEGYGSARSEDTWIPTETSREKVNSVGWNDQFACSATNDGFVRWADVGQGSARVATQVRIPDAEGPPVYLHCNGPMAIVRTHHGVLYGIDLRVGASEGPLKRHDIWRKKFQESHGLVTSSAIDPWQQSWMVIGNNSGQKNLVLYDLRFKEEVLRWESPHQNTQPNRVWANPVSRQECPEVFVGFSMHGEISTYELSAQPLRKRVFWTGGAPILSYSAASNDARKQDSLATRSLCVCEKTGVVYTGDTRGAIRKWNPTRAVGCEIISAPPKGRTAYRTIFEENDTSTAPSGASTDPFVIYERTVLDTEAKENQKVVPLDSKPSTYHRTPITDMMLLNSELLVSSGYDGVIKIWK”, the “soluble on expression in E. coli” value is given as “not soluble”.
On to “MGTHMYSEQGINNTINISTTSLTNATQLTVIGNNNSVYIGNNCKIVSSNIRLKGNNITLFIADDVEIMGLVCSLHSDCSLQIQAKTTMGNGEITIAEKGKISIGKDCMLAHGYEIRNTDMHPIYSLENGERINHGKDVIIGNHVWLGRNVTILKGVCIPNNVVVGSHTVLYKSFKEPNCVIAGSPAKIVKENIVWGRKMYHSTMYDDPTLNEFYK”, for which the “soluble on expression in E. coli” value is “soluble”.
The value for “MATEIDINRIQKDIFIEHKGEPYRVLDYEHVKPGKGQAFVRVKAKNMLTGNVTELTFKASDRIPLADFEQVYATYSYNDGENYYFMNTQTYDMIAVPKEKIEEEAKFLKEGMEVIVFLYKGQPIGIELPKHVELQVVETEPAFKGDTQAGGTKPAKLETGAVIQVPFFVKEGDIVKVDTRTGSYVERVKEAK” was “soluble”; that for “MGSDKIHHHHHHMTAPLKSLFLLDPSVTYLNHGAYGATPRPVFERHVQWQYELEREPVDFLSRRFAERMAQARAILAEYVDTERDNLVYVSNGTTGVNIVARSLPLGPGDELLTTDHEHGGIERLWRFTAQKRGFEIVRHKVSLPVTTHARFVEDFWRDVTPRTRAILISQLTSPTALVFPVAAICARARARGILTIVDGSHVPGQLPLSLREMDPDFYVGILHKWVCAPKGSAFLYARPDVQPLVEPLVVSWGWEPKNPGPSKFVEYHEWQGSRDISAFLSVPSAIAFQREHDWDGVRKRCIALASDAQREVAALTREPLYHPPGAHEWHGQMVCAQLPPQTDDIALLARLRNECGIDVSVDRFGGRPRIRVSIQGYNGPDDVDRLLGSLKQLLRL” was “not soluble”.
The result for “MIPIERHQKILALVAERGVVSIAELTERLGVSHMTIRRDVQKLEEQGAVLSVSGGVRSTQRLAIEPSHQDKTMMFSRQKQAIGTSAALHIPRNSCIYLDAGTTTLALARQLEDRDDLLVVTNDFVIANFLIESSQCRMIHSGGTLCRKNRSCIGEAAAHSLRNLSIDIAFISASCWGLRGISTPDEDKVPVKRAISEASSKRVLLADASKYGKVATYLALPLTAFDVVITDNSLSSTVYEELAEKALELIIASPPR” reads “not soluble”.
As for “MRGSHHHHHHTDPALRADLSLLKALSEADAIASSEQEVRQILLEEADRLQKEVRFDGLGSVLIRLNESTGPKVMICAHMDEVGFMVRSISREGAIDVLPVGNVRMAARQLQPVRITTREECKIPGLLDGDRQGNDVSAMRVDIGARSYDEVMQAGIRPGDRVTFDTTFQVLPHQRVMGKAFDDRLGCYLLVTLLRELHDAELPAEVWLVASSSEEVGLRGGQTATRAVSPDVAIVLDTACWAKNFDYGAANHRQIGNGPMLVLSDKSLIAPPKLTAWVETVAAEIGVPLQADMFSNGGTDGGAVHLTGTGVPTVVMGPATRHGHCAASIADCRDILQMQQLLSALIQRLTRETVVQLTDFRGLCGR”, the “soluble on expression in E. coli” value is “soluble”.
The result for “MASRKTVNRRQRPQRATSNVFAMFDQAQIQEFKEAFNMIDQNRDGFIDQEDLKDMFASLGKEVTEQFIDSMINEAPGAQPINFTMFLTLFGEKLTGTDPEEVIRNAFQCFDEDNSGKLNEEHLRELLTTMGERYSEEQVDELFRDAPIKGGQFDYVEFTRMLKHGTKDKDEA” reads “not soluble”.
The result for “MGHHHHHHSHMNRLPDDYDPYAVEEPSDEEPALSSSEDEVDVLLHGTPDQKRKLIRECLTGESESSSEDEFEKEMEAELNSTMKTMEDKLSSLGTGSSSGNGKVATAPTRYYDDIYFDSDSEDEDRAVQVTKKKKKKQHKIPTNDELLYDPEKDNRDQAWVDAQRRGYHGLGPQRSREQQPVPNSDAVLNCPACMTTLCLDCQRHESYKTQYRAMFVMNCSINKEEVLRYKASENRKKRRVHKKMRSNQEDAAEKAETDVEEIYHPVMCTECSTEVAVYDKDEVFHFFNVLASHS” reads “not soluble”.
